Measurements as given in FireProtDB (doi:10.1021/bi049405c).
Where “and” joins values, the source holds several entries; their conditions need not be identical. Equal values may be shown once.

Details: Escherichia coli (strain K12); pH 7.6; 25 °C; GdnHCl; CD; HEPES 10 mM; KCl 100 mM; transition: 3; reversible: yes; whole UniProt chain shown

B1: Nickel-responsive regulator wild type, P0A6Z6 (protein)
chain: MQRVTITLDDDLLETLDSLSQRRGYNNRSEAIRDILRSALAQEATQQHGTQGFAVLSYVYEHEKRDLASRIVSTQHHHHDLSVATLHVHINHDDCLEIAVLKGDMGDVQHFADDVIAQRGVRHGHLQCLPKED
- denaturant midpoint (higher = more stable): 1.2 M and 2.8 M
